Test results as given in patent US20110293610A1 (published 2011).
One block for each binder: values may come before it.

Experiments:
[1] = target: T1, biotinylated B Lymphocyte Stimulator, soluble form (human, UniProt Q9Y275 134-285, biotinylated with NHS-biotin, molar ratio 20:1 biotin:protein); test: purified scFv, receptor binding inhibition on IM9 cells
T1 construct: also called bio-B Lymphocyte Stimulator; free B Lymphocyte Stimulator

[2] = target: T2, B Lymphocyte Stimulator, soluble form (human) (human, UniProt Q9Y275 134-285, biotinylated with NHS-biotin where used as biotinylated B Lymphocyte Stimulator); test: BIAcore, IgG1 captured on low-density Protein A surface, BLyS passed over
T2 construct: Coated on plastic, captured on streptavidin plates, amine-coupled to a CM5 chip or free in solution, depending on the assay; also called BLyS; immobilized B Lymphocyte Stimulator
Description: Briefly, antibodies were captured on low-density Protein A surfaces and B Lymphocyte Stimulator was passed over at various flow rates. The binding of B Lymphocyte Stimulator to immobilized antibody was detected by changes in […] that were proportional to the amount of bound B Lymphocyte Stimulator. Binding values were calculated using software provided by the manufacturer.

[3] = target: T2, B Lymphocyte Stimulator, soluble form …; test: cell-based or functional assay
[4] = target: T3, HIS-tagged B Lymphocyte Stimulator (human, UniProt Q9Y275 71-285); test: BIAcore, purified scFv over low density (500 RU) HIS-BLyS surface
T3 construct: Expressed in E. coli from pQE9 and purified; also called histidine-tagged B Lymphocyte Stimulator; HIS-B Lymphocyte Stimulator; not shown: histidine tag of the pQE9 vector
Description: The chip containing the low density HIS-B Lymphocyte Stimulator surface was inserted into the BIAcore. […] The dilution series was then injected sequentially over the blank control (flow cell 1) and low density HIS-B Lymphocyte Stimulator surface (flow cell 2) using the following program: […]

[5] = target: T2, B Lymphocyte Stimulator, soluble form …; test: phage ELISA, biotinylated BLyS on streptavidin plates
Bovine serum albumin = target: T4, Bovine serum albumin (bovine, UniProt P02769 25-607); test: phage ELISA
T4 construct: also called BSA

TNF-alpha = target: T5, TNF-alpha (human, UniProt P01375 77-233); test: phage ELISA
T5 construct: also called TNFα; TNF-α

LIGHT = LIGHT (human, UniProt O43557 74-240, limits assumed); test: phage ELISA
TNF-beta = target: T6, TNF-beta (human, UniProt P01374 35-205); test: phage ELISA
T6 construct: also called TNFβ; Tumour Necrosis Factor-beta
T6 sequence (looked up): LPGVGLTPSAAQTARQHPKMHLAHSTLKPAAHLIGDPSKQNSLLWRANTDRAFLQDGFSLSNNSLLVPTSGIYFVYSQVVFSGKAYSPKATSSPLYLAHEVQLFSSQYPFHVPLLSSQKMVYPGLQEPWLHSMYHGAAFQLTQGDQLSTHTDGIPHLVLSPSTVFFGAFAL

TRAIL = target: T7, TRAIL (human, UniProt P50591 114-281); test: phage ELISA
T7 construct: also called TNF-related apoptosis inducing ligand

[6] = target: T2, B Lymphocyte Stimulator, soluble form …; test: BIAcore 2000, purified scFv over low density (500 RU) BLyS surface

T5 sequence (P01375 77-233 limits assumed): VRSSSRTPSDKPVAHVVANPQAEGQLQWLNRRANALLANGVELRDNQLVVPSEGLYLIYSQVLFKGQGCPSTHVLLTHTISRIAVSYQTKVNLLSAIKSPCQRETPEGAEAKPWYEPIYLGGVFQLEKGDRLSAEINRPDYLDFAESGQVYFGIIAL
T7 sequence (P50591 114-281 limits assumed): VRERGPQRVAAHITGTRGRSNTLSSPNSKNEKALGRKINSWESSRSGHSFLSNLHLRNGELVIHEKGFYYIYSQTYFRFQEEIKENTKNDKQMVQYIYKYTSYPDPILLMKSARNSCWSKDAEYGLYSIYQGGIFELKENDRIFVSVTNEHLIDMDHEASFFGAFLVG
T4 sequence (P02769 25-607 limits assumed): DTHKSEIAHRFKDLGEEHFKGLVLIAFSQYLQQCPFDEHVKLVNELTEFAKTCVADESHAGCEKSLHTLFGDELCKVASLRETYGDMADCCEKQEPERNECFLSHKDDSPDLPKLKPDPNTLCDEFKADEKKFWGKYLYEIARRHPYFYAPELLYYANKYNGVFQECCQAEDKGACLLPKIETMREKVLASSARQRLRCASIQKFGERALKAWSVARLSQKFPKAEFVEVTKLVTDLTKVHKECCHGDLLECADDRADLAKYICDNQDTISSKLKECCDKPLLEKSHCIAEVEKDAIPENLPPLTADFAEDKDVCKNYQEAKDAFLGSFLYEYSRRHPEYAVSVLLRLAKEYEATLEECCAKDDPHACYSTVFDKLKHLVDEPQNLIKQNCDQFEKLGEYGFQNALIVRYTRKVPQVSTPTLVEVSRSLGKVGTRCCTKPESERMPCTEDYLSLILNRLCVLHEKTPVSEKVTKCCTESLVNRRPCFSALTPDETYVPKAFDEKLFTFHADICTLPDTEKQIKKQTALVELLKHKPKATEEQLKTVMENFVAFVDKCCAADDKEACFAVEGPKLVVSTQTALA
LIGHT, sequence (O43557 74-240 limits assumed): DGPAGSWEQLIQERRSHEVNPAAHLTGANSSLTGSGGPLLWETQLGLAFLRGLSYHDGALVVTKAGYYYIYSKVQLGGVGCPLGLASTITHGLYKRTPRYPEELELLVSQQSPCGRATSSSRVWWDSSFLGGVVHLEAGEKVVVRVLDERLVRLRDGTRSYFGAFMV

B2: I006D08 (whole IgG1) (antibody, V domains shown)
VH: QVQLQQSGAEVKKPGSSVRVSCKASGGTFNNNAINWVRQAPGQGLEWMGGIIPMFGTAKYSQNFQGRVAITADESTSTASMELSSLRSEDTAVYYCARSRDLLLFPHYGMDVWGRGTMVTVSS
VL: SSELTQDPAVSVALGQTVRVTCQGDSLRSYYASWYQQKPGQAPVLVIYGKNNRPSGIPDRFSGSSSGNTASLTITGAQAEDEADYYCNSRDSSGNHWVFGGGTELTVLG
notes: constant regions (human IgG1)
fold higher Kd than I116A01 [2]: ~2 fold
fold higher off rate (kd) than I116A01 [2]: 2 fold
IC50 for the inhibition of human B Lymphocyte Stimulator induced-proliferation of murine B cells (3H-thymidine incorporation) [3]: 0.09 nM

B3: I082C03 (scFv)
scFv: QVQLVQSGSEVKKPGASVKVSCKTSGYSFTGYFIHWVRQAPGQGLEWMGWINPNSGGTNLAQKFQGRVTMTRDTSISTAYMELSSLKSDDTAVYYCARDASRDIVVLPLAIWGKGTLVTVSSGGGGSGGGGSGGGGSDIQMTQSPSTLSASIGDRVTITCRASEGIYHWLAWYQQKPGKAPKLLIYKASSLASGAPSRFSGSGSGTDFTLTISSLQPDDFATYYCQQYSNYPLTFGGGTKLEIKR
Kd [4]: 20 nM
koff [4]: 0.002 s⁻¹

B5: I003C02 (scFv)
scFv: EVQLVQSGAEVKKPGSSVKVSCQASGGNFNSYGVSWVRQAPGQGLEWMGRIIPNVGTANYAQKFQGRVTITADKLTSTVYLEVRSLRSEDTAVYYCARGDYDILTGYPAECFQIWGQGTMVTVSSGGGGSGGGGSGGGGSAQAVLTQPSSASGTPGQRVTISCSGSTSNIGTNTVNWYQQLPGTAPKLLIYSNHLRPSGVPDRFSGSKSGTSASLAISGLQSEDEADYYCSARDDSLNGVVFGGGTKVTVLG
koff [6]: 0.006 s⁻¹

Results, then the binder that gave them:

binding result [1]: binds
B1: I003F12S (scFv)
scFv: QVQLLQSAAELKKPGQSLKISCKGSGFTFTTYWIGWVRQLPGKGLEWMGIIYPGDSHTTYSPSFEGHVNISVDKSINTAYLQWSSLKASDTAMYYCARHDDDVLTGYYFESWGQGTMVTVSSGGGGSGGGGSGGGGSQSVLTQPASVSGSPGQSITISCTGTSSDVGGYNYVSWYQQHPGKAPKLMIYEGSKRPSGVSNRFSGSKSGNTASLTISGLQAEDEADYYCSSYTTRSTRVFGGGTKLTVLG

binding result [5]: binds
binding result (Bovine serum albumin): no binding
binding result (TNF-alpha): no binding
binding result (LIGHT): no binding
binding result (TNF-beta): no binding
binding result (TRAIL): no binding
B4: I075F12 (scFv)
scFv: QVQLVQSGAEVKKPGSSVKVSCKASGGTVSSRTISWVRQAPGQGLEWMGGSLPPSGAPIYAQKFQGRVAITADALTNTAFMELRSLKSDDTAVYYCARDQGRYLDLWGQGTMVTVSSGGGGSGGGGSGGGGSAQAVLTQPSSASGTPGQRATISCSGSSSDIGINAVNWYKQLPRTAPKLLIYRNNQRPSGVPDRFSGSKSGTSASLAIIGLQSEDEADYYCATWDDSLTAYVFGTGTKVTVLG
